The target in series [1] is T1, GST-E2F1 (UniProt Q01094 1-437). As to the kind of experiment: EMSA; EMSA as in ref 34 (buffer, pH, temperature not given); 1.8 ug GST-E2F1 per reaction, 24 ng/ul ds mutant adenovirus E2 E2F-site oligo as nonspecific competitor. Particulars: protein: recombinant, label: 32P. (Mobility shift assays separate free from complexed probe on a gel.)
Series [2] addresses T1, GST-E2F1. As to the kind of experiment: competition; 100-fold excess vs EBP1 -158 and -113 probes; substantially reduced; EMSA as in ref 34 (buffer, pH, temperature not given); 1.8 ug GST-E2F1 per reaction, 24 ng/ul ds mutant adenovirus E2 E2F-site oligo as nonspecific competitor. The following applies: protein: recombinant; blunt.
The target in series [3] is T1, GST-E2F1. As to the kind of experiment: competition; 100-fold excess vs EBP1 -158 and -113 probes; EMSA as in ref 34 (buffer, pH, temperature not given); 1.8 ug GST-E2F1 per reaction, 24 ng/ul ds mutant adenovirus E2 E2F-site oligo as nonspecific competitor. The following applies: protein: recombinant, blunt.
Series [4] has as its target T1, GST-E2F1. In words: EMSA; additional low-mobility complex; EMSA as in ref 34 (buffer, pH, temperature not given); 1.8 ug GST-E2F1 per reaction, 24 ng/ul ds mutant adenovirus E2 E2F-site oligo as nonspecific competitor. The following applies: protein: recombinant; label: 32P; blunt.
Where [5] appears, read: terminal G:G mismatch as printed.

Where a chain is given by its changes, count along the chain named. Names may count otherwise.

T1 sequence (Q01094 whole entry): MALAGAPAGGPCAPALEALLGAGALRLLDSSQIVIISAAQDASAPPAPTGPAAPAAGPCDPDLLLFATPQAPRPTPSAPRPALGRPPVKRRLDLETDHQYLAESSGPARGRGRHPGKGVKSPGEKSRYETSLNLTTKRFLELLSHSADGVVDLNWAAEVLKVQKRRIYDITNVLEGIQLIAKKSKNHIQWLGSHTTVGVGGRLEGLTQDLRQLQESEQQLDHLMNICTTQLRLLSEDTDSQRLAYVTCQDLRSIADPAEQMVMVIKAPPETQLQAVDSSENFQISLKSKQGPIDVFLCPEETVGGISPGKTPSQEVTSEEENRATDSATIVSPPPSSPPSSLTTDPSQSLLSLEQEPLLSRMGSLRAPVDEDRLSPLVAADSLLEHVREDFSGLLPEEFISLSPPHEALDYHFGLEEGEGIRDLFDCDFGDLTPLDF

B1: EBP1 -168 probe (-168 to -130) (dsDNA)
DNA 1: GCTTAGGAGCGCGAGAGGCAGGCTGGGAATTGTAGTTC
DNA 2: GAACTACAATTCCCAGCCTGCCTCTCGCGCTCCTAAGC
Regarding B1, the binding result in series [1] (blunt) is “binds”.

B2: EBP1 -136 probe (-136 to -100) (dsDNA)
DNA 1: TAGTTCGAAGGCCCTCGAGAGCGGCTAGAGTCTGG
DNA 2: GCAGACTCTAGCCGCTCTCGAGGGCCTTCGAACTA
In the case of B2, the binding result in series [1] (setting [5]) is “binds”.

B3: TIMELESS E2F site (dsDNA)
DNA 1: CAGAAAATTCATAGCGCTGTGATTTTTAGATC
DNA 2: GATCTAAAAATCACAGCGCTATGAATTTTCTG
B3: in series [2], the binding result is listed as “binds”.

B4: TIMELESS E2F site mutant (dsDNA)
DNA 1: B3 DNA 1 with G14A, C15A, G16A, C17A
DNA 2: B3 DNA 2 with G16T, C17T, G18T, C19T
For B4, in series [3], the binding result is recorded as “no binding”.

B5: N-myc E2F site (dsDNA)
DNA 1: GATCCTTTTGGCGCGAAAGGCTTAGATC
DNA 2: GATCTAAGCCTTTCGCGCCAAAAGGATC
As for B5, the binding result in series [3] is on record as “binds”.

B6: EBP1 -166 (-113*) (dsDNA)
DNA 1: TTAGGAGCGCGAGAGGCAGGCTGGGAATTGTAGTTCGAAGGCCCTCGAGAAAAAATAGAGTC
DNA 2: GACTCTATTTTTTCTCGAGGGCCTTCGAACTACAATTCCCAGCCTGCCTCTCGCGCTCCTAA
On to B6, for which, in series [1] (blunt), the binding result is listed as “binds”.

B7: EBP1 -113* (dsDNA)
DNA 1: TAGTTCGAAGGCCCTCGAGAAAAAATAGAGTCTGG
DNA 2: GCAGACTCTATTTTTTCTCGAGGGCCTTCGAACTA
As for B7, the binding result in series [1] (setting [5]) is listed as “no binding”.

B8: DHFR E2F site mutant (dsDNA)
DNA 1: CTAGAGCAATTTAAAAACAAACTTGGATC
DNA 2: GATCCAAGTTTGTTTTTAAATTGCTCTAG
Take B8: in series [3], the binding result is “no binding”.

B9: EBP1 -158* (dsDNA)
DNA 1: GCTTAGGAAAAAAAGAGGCAGGCTGGGAATTGTAGTTC
DNA 2: GAACTACAATTCCCAGCCTGCCTCTTTTTTTCCTAAGC
As to B9, the binding result in series [1] (blunt) is listed as “no binding”.

B10: EBP1 -155 probe (-155 to -120) (dsDNA)
DNA 1: GAGCTTCGAACTACAATTCCCAGCCTGCCTCTCGCGCTG
DNA 2: CAGCGCGAGAGGCAGGCTGGGAATTGTAGTTCGAAGCTC
As to B10, the binding result in series [1] (blunt) is “no binding”.

B11: DHFR E2F site (dsDNA)
DNA 1: CTAGAGCAATTTCGCGCCAAACTTGGATC
DNA 2: GATCCAAGTTTGGCGCGAAATTGCTCTAG
Consider B11, for which the binding result in series [3] (label: 32P as probe) is given as “binds”.

B12: EBP1 -166 (-158*) (dsDNA)
DNA 1: TTAGGAAAAAAAGAGGCAGGCTGGGAATTGTAGTTCGAAGGCCCTCGAGAGCGGCTAGAGTC
DNA 2: GACTCTAGCCGCTCTCGAGGGCCTTCGAACTACAATTCCCAGCCTGCCTCTTTTTTTCCTAA
Take B12: the binding result in series [1] (blunt) is “binds”.

B13: EBP1 -166 wt (-166 to -104) (dsDNA)
DNA 1: B12 DNA 1 with A7G, A8C, A9G, A10C, A11G
DNA 2: B12 DNA 2 with T52C, T53G, T54C, T55G, T56C
As to B13, in series [4], the binding result is listed as “binds”.

B14: EBP1 -166 (both*) (dsDNA)
DNA 1: B12 DNA 1 with G51A, C52A, G53A, G54A, C55A
DNA 2: B12 DNA 2 with G8T, C9T, C10T, G11T, C12T
On to B14, for which the binding result in series [1] (blunt) was “no binding”.
